The values below come from patent publication USRE45968 (SIGMA TAU INDUSTRIE FARMACEUTICHE RIUNITE S PA, dated 2016).

Test [1] deals with T1, Human CEA protein, purified from colon carcinoma and liver metastases (human, UniProt P06731 35-685, limits assumed).
T1 construct: Bought; Biotinylated for the selections; also called carcino-embryonic antigen
T1 sequence (looked up): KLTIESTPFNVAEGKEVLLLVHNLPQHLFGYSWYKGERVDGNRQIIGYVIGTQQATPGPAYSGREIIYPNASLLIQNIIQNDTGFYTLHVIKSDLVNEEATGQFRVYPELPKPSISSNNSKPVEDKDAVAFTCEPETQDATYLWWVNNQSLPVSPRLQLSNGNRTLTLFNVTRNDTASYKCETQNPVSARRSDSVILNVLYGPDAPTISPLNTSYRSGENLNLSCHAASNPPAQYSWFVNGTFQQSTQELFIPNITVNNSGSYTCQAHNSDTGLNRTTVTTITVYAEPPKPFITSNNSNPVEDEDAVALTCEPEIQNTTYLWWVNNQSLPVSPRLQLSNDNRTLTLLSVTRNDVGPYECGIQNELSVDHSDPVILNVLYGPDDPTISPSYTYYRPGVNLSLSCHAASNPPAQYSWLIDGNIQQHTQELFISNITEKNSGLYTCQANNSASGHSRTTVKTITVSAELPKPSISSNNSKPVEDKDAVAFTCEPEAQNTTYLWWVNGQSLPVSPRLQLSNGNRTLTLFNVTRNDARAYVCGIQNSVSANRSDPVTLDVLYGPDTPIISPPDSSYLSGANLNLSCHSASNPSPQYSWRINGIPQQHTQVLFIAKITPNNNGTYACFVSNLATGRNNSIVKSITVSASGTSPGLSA
Put plainly: Surface Plasmon Resonance (Biacore), soluble scFv.

Test [2] addresses T2, GST-fused MUC1 recombinant protein, containing a 107-aa MUC1 sequence, containing 5.3 repeats (UniProt P08515 1-218 = GST; P15941 126-232).
T2 construct: Biotinylated for the selections; also called Recombinant MUC1 protein; MUC1 tumor antigen
Put plainly: Surface Plasmon Resonance (Biacore), soluble scFv. For orientation: SPR reads the build-up and loss of mass on a sensor chip optically.

B1: CB37/3B scFv antibody, soluble form (scFv)
scFv: RTMEEVQLVQSGGGLIQPGGSLRLSCVASEFNVRSNYMSWVRQAPGKGLEWVSVMYDGGSTYYADSVKGRFTISRDNSKNTVYLQMNSLRAEDTAVYYCARGGLGLPTIAPWEIWGQGTMVTVSSGGGGSGGGGSGGGGSSYVLTQPPSVSVAPGKTATITCAGNNIGSNSVYWYQQKPGLAPVLVVYDDRDRPSGIHERFSGSKSGNTATLTISRVEAGDEADYSCQVWDPSSDHLYVFGTGTQLTVLGAA
notes: domain: first two amino acids of the mature AP protein; not shown: FLAG/His-tail at the carboxyl-terminus (pKM16)
For orientation: Kd means the constant that tells how readily two partners part at equilibrium. Turning to B1, the Kd in test [1] is 3.66 nM.

B2: CB37/9C scFv antibody, soluble form (scFv)
scFv: RTMEEVQLVQSGGGLIQPGGSLRLSCVASEFNVRSNYMSWVRQAPGKGLEWVSVMYDGGSTYYADSVKGRFTISRDNSKNTVYLQMNSLRAEDTAVYYCARGGLGLPTIASWEIWGQGTMVTVSSGGGGSGGGGSGGGGSSYVLTQPPSVSVAPGKTATITCAGNNIGSNSVYWYQQKPGLAPVLVVYDDRDRPSGLPGRFSGSKSGNTATLTISRVEAGDEADYSCQVWDPSSDHLYVFGTGTQLTVLGAA
notes: domain: first two amino acids of the mature AP protein; cloned in pKM16 and produced in soluble form; not shown: FLAG/His-tail at the carboxyl-terminus (pKM16)
With B2, the Kd in test [1] turned out to be 1.42 nM.

B3: MB5/C′3 scFv antibody, soluble form (scFv)
scFv: RTMEQVQLVQSGAEVKKPGASVKVSCKASGYTFTASYMHWVRQAPGQGLEWMGWFNPNSGGTNYAQKFQGRVTMTGDTSTSTGYMELSRLTSDDAAVYYCARDRASAMGVWGQGTLVTVSSGGGGSGGGGSGGGGSQSALTQPASVSGSPGQSITISCTGTSSDVGGYNYVSWYQQHPGKAPKLMIYDVTNRPSGVSSRFSGSKSGNTASLTISGLQTEDEADYYCNSFTSSNTYVFGTGTQLTVLGAA
notes: as for B2
Turning to B3, in test [2], the Kd is 23.1 nM.

B4: MB5/C′1 scFv antibody, soluble form (scFv)
scFv: RTMEEVQLQESGAEVKKPGASVKVSCKASGYTFTASYMHWVRQAPGQGLEWMGWFNPNSGGTNYAQKFQGRVTMTGDTSTSTGYMELSRLTSDDAAVYYCARDRASAMGVWGQGTLVTVSSGGGGSGGGGSGGGGSQSALTQPASVSGSPGQSITISCTGTSSDVGGYNYVSWYQQHPGKAPKLMIYDVSHRPSGISNRFSGSKSGNTASLTISRLQAEDEADYYCSSYTSSNTFIFGTGTQLTVLGAA
notes: domain: first two amino acids of the mature AP protein; cloned in pKM16 and produced in soluble form; also called MBB5/C′1; not shown: FLAG/His-tail at the carboxyl-terminus (pKM16)
As to B4, the dissociation constant (Kd) in test [2] is 9.46 nM.
